Source: EP1987837A1 (Technische Universität Dresden Medizinische Fakultät Carl …, dated 2008)
One block for each molecule: values may come before it.

Assays:
[1] = target: endogenous β2-syntrophin (rat) (UniProt P01322); experiment: cell-based or functional assay
[2] = target: the molecule itself; experiment: co-immunoprecipitation from INS-1E cells
35S-Luciferase = target: T1, 35S-Luciferase (firefly, UniProt P08659 1-550 = luciferase, 35S-methionine labelled); experiment: GST pull-down, SDS-PAGE and autoradiography
T1 construct: Control protein in the pull-down assays; also called firefly luciferase; control protein
T1 sequence (P08659 whole entry): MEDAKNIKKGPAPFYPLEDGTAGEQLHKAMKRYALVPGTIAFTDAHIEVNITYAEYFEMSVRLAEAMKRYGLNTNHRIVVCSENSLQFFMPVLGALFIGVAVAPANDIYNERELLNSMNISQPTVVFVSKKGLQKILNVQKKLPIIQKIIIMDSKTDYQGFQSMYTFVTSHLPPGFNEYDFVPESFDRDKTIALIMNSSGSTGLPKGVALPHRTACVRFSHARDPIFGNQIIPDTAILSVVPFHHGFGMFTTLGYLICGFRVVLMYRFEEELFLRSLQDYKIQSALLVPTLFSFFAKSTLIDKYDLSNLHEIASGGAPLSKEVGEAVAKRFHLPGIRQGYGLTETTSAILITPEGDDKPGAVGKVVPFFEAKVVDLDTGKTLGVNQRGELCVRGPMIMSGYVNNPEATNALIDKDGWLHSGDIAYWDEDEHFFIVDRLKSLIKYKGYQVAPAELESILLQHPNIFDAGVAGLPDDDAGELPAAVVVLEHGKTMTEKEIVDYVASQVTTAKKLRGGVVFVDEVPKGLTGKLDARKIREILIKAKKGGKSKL

35S-ICA512601-979 = target: T2, 35S-ICA512601-979 (Homo sapiens (Human), UniProt Q16849 601-979, 35S-methionine labelled); experiment: GST pull-down, SDS-PAGE and autoradiography
T2 construct: also called cytoplasmic portion of ICA512
T2 sequence: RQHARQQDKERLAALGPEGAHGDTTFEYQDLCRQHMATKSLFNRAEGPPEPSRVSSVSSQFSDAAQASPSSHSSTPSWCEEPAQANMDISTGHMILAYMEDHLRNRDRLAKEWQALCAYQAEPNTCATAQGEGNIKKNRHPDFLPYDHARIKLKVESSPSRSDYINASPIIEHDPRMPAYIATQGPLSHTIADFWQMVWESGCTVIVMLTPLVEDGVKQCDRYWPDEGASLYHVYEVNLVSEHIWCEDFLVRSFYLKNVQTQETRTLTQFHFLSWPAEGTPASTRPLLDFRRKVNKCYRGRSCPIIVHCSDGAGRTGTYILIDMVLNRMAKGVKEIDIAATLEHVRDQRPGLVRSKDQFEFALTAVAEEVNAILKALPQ

35S-ICA512700-979 = target: T3, 35S-ICA512700-979 (Homo sapiens (Human), UniProt Q16849 700-979, 35S-methionine labelled); experiment: GST pull-down, SDS-PAGE and autoradiography
T3 construct: In vitro transcribed and translated from pET28a; also called PTP portion of ICA512
T3 sequence: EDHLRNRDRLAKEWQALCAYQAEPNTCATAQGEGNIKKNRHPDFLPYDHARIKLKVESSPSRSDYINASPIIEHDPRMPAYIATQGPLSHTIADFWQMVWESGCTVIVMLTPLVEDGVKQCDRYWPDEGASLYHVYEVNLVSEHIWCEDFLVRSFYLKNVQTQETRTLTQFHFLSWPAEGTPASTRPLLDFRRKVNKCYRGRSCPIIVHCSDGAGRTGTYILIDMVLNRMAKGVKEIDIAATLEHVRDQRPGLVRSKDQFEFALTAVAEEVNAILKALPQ

Molecule: ICA512-TMF (from UniProt Q63259 41-983) (receptor)
- insulin stimulation index after knockdown of β2-syntrophin, compared to control cells [1]: 34%

B1: pro-ICA512 (receptor, rat, UniProt Q63259 41-983, looked up)
chain: ISAHGCLFDRRLCSHLEVCIQDGLFGQCQAGVGQARPLLQVTSPVLQRLQGVLRQLMSQGLSWHDDLTQYVISQEMERIPRLRPPEPHPRDRSGSVPRRAGPAGELLSQGNPTGSSPAVQGLSRPPGDGNGAGVGSPLSSLQAELLPPLLEHLLMPPQPPHPSLTYEPALLQPYLFQQFGSRDGSRGSESASGVVGHLAKAEDPVLFSRSLSKAILGTHSGHSFGDLTGPSPAQLFQDSGLLYMAQELPVPGRARAPRLPEEGGSSRAEDSSEGHEEEVLGGHGEKSPPQAVQADVSLQRLAAVLAGYGVELRQLTPEQLSTLLTLLQLLPKGTGRHLGGAVNGGADVKKTIEEQMQRGDTADARPPTPLLPGHPTASSTSIKVRQVLSPGFPEPPKTSSPLGISAVLLEKKSPLGQSQPTVVGQPSARPSAEEYGYIVTDQKPLSLVAGVKLLEILAEHVHMTSGSFINISVVGPAVTFRIRHNEQNLSLADVTQQAGLVKSELEAQTGLQILQTGVGQREESAAVLPRQAHGISPMRSLLLTLVALAGVAGLLVALAVALCMRHHSKQRDKERLAALGPEGAHGDTTFEYQDLCRQHMATKSLFNRAEGQPEPSRVSSVSSQFSDAAQASPSSHSSTPSWCEEPAQANMDISTGHMILAYMEDHLRNRDRLAKEWQALCAYQAEPNTCATAQGEGNIKKNRHPDFLPYDHARIKLKVESSPSRSDYINASPIIEHDPRMPAYIATQGPLSHTIADFWQMVWESGCTVIVMLTPLVEDGVKQCDRYWPDEGSSLYHVYEVNLVSEHIWCEDFLVRSFYLKNVQTQETRTLTQFHFLSWPAEGTPASTRPLLDFRRKVNKCYRGRSCPIIVHCSDGAGRTGTYILIDMVLNRMAKGVKEIDIAATLEHVRDQRPGLVRSKDQFEFALTAVAEEVNAILKALPQ
notes: In cells expressing ICA512-GFP, one partner may be the GFP-tagged form; also called pro-form of ICA512, glycoprotein of 110 kDa
- binding result [2]: no binding

Second part, the molecule after the results:

- binding result (35S-Luciferase): no binding
B2: GST-ICA512601-979 (other)
chain: RQHARQQDKERLAALGPEGAHGDTTFEYQDLCRQHMATKSLFNRAEGPPEPSRVSSVSSQFSDAAQASPSSHSSTPSWCEEPAQANMDISTGHMILAYMEDHLRNRDRLAKEWQALCAYQAEPNTCATAQGEGNIKKNRHPDFLPYDHARIKLKVESSPSRSDYINASPIIEHDPRMPAYIATQGPLSHTIADFWQMVWESGCTVIVMLTPLVEDGVKQCDRYWPDEGASLYHVYEVNLVSEHIWCEDFLVRSFYLKNVQTQETRTLTQFHFLSWPAEGTPASTRPLLDFRRKVNKCYRGRSCPIIVHCSDGAGRTGTYILIDMVLNRMAKGVKEIDIAATLEHVRDQRPGLVRSKDQFEFALTAVAEEVNAILKALPQ
notes: Bacterially expressed, coupled to glutathione sepharose beads (1 µg); The construct is only cited (Ort et al., 2000); not shown: glutathione S-transferase (GST) fusion partner

- binding result (35S-ICA512601-979): no binding
- binding result (35S-ICA512700-979): no binding
B3: GST-ICA512800-979 (other)
chain: ESGCTVIVMLTPLVEDGVKQCDRYWPDEGASLYHVYEVNLVSEHIWCEDFLVRSFYLKNVQTQETRTLTQFHFLSWPAEGTPASTRPLLDFRRKVNKCYRGRSCPIIVHCSDGAGRTGTYILIDMVLNRMAKGVKEIDIAATLEHVRDQRPGLVRSKDQFEFALTAVAEEVNAILKALPQ
notes: Bacterially expressed, on glutathione sepharose beads; not shown: glutathione S-transferase (GST) fusion partner
